From paper PMC11623929 come the findings set out here.

The target of this assay is WDR5-Luc-FKBP12.

The substance VHL-FRB (from UniProt P42345 2019-2112) came in with a decrease of luciferase activity of the WDR5 fusion in HEK293 cells, rapamycin overnight, 10- or 100-fold excess of the VHL-FRB plasmid (bridged by rapamycin) of 50.2%.
